Results: patent publication US20080207526A1
Read-outs that look alike come from different tables or passages of the source.

T1: recombinant water-soluble HLA-DR4 (DRA/DRB1*0401) (human)
T1 chain 1: not shown
T1 chain 2: not shown

T2: recombinant water-soluble HLA-DR1 (DRA/DRB1*0101) (human)
T2 chain 1: not shown
T2 chain 2: not shown

T3: HLA-DR4 on antigen presenting cells (L cells transfected with DR4; Priess cells DRB1*0401/DRB4*0101) (human)
T3 chain 1: not shown
T3 chain 2: not shown


What was measured:
[1] = target: recombinant water-soluble HLA-DR2 (DRB1*1501) (human)
[2] = target: recombinant water-soluble HLA-DR1 (DRA/DRB1*0101) (human)
[3] = target: recombinant water-soluble HLA-DR4 (DRA/DRB1*0401) (human)
[4] = target: recombinant water-soluble HLA-DR4 (DRA/DRB1*0401) (human); remark: listed apart in the source
[5] = target: recombinant water-soluble HLA-DR1 (DRA/DRB1*0101) (human); remark: listed apart in the source
[6] = target: T1, recombinant water-soluble HLA-DR4 …
[7] = target: T1, recombinant water-soluble HLA-DR4 …
[8] = target: T2, recombinant water-soluble HLA-DR1 …
[9] = target: T2, recombinant water-soluble HLA-DR1 …
[10] = target: T3, HLA-DR4 on antigen presenting cells (L …); experiment: cell-based or functional assay

Row | Molecule | affinity determined by competition with biotinylated competitor [6] [µM] | inhibition of the DR4-restricted 3838 T cell clone (IL-2 secretion) [10] [%] | other results
1 | Copolymer 1, poly(Y,E,A,K) |  |  | percent of added YEAK in the bound fraction [1]: 80%; percent of added YEAK in the bound fraction [2]: > 95%; percent of added YEAK in the bound fraction [3]: > 95%; affinity determined by competition with biotinylated competitor [4]: 2.5 µM; affinity determined by competition with biotinylated competitor [5]: 8 µM
2 | AKEYAAAAAAKAAAA (modifications not checked) [peptide SEQ ID NO: 7] | 4.5 |  | affinity determined by competition with biotinylated competitor [8]: 19 µM
3 | EKAYAAAAAAKAAAA (modifications not checked) [peptide SEQ ID NO: 13] | 3.3 |  | 
4 | AEEYAAAAAAKAAAA (modifications not checked) [peptide SEQ ID NO: 11] |  | > 80 | 
5 | AEKYAAAAAAKAAAA (modifications not checked) [peptide SEQ ID NO: 6] |  | > 80 | 
6 | AAAYAAAAAAKAAAA (modifications not checked) [peptide SEQ ID NO: 5] | 7 |  | 
7 | KEAYAAAAAAKAAAA (modifications not checked) [peptide SEQ ID NO: 10] | 4.5 |  | 
8 | AAKYEAAAAAKAAAA (modifications not checked) [peptide SEQ ID NO: 14] | 4 |  | 
9 | AAEYAAAAAAKAAAA (modifications not checked) [peptide SEQ ID NO: 12] | 3.2 |  | affinity determined by competition with biotinylated competitor [8]: 47 µM

Second part, led by results:

Row | affinity determined by competition with biotinylated competitor [6] [µM] | inhibition of the DR4-restricted 3838 T cell clone (IL-2 secretion) [10] [%] | Molecule | other results
10 | 1.8 |  | AAEYKAAAAAAAAAA (modifications not checked) [peptide SEQ ID NO: 26] | 
11 | 2.2 |  | AKKYEAAAAAAAAAA (modifications not checked) [peptide SEQ ID NO: 21] | 
12 | 3 |  | AKYAEAAAAAAAAAA (modifications not checked) [peptide SEQ ID NO: 36] | 
13 | 3 |  | AEYAKAAAAAAAAAA (modifications not checked) [peptide SEQ ID NO: 32] | 
14 | 4.4 |  | EAKYAAAAAAKAAAA (modifications not checked) [peptide SEQ ID NO: 18] | affinity determined by competition with biotinylated competitor [7]: 3 µM; affinity determined by competition with biotinylated competitor [8]: 33 µM
15 | 1.8 |  | AAKYAEAAAAKAAAA (modifications not checked) [peptide SEQ ID NO: 15] | affinity determined by competition with biotinylated competitor [7]: < 1 µM; affinity determined by competition with biotinylated competitor [8]: 42 µM; affinity determined by competition with biotinylated competitor [9]: 16 µM
16 |  | > 80 | AEKAYAAAAAAAAAA (modifications not checked) [peptide SEQ ID NO: 33] | affinity determined by competition with biotinylated competitor ([6]; remark: other sources report otherwise): < 1 µM
17 | 5 | > 80 | EAAYAAAAAAKAAAA (modifications not checked) [peptide SEQ ID NO: 16] | 
18 |  | > 80 | AAKYEAAAAAAAAAA (modifications not checked) [peptide SEQ ID NO: 28] | 
19 | 1.3 |  | AYKAEAAAAAAAAAA (modifications not checked) [peptide SEQ ID NO: 35] | 
20 | 1.8 | > 80 | EKKYAAAAAAKAAAA (modifications not checked) [peptide SEQ ID NO: 17] | 
